{
  "source": "patent US20220251215A1",
  "about": "(Regeneron, published 2022)",
  "key": {"[1]": {"target": "T1, monomeric HLA-A2:NY-ESO-1(156-165) (V at position 165) peptide complex, 2906", "T1 construct": "also called soluble HLA-A2:NY-ESO-1 peptide complex", "assay": "SPR, 37 C, antibody captured, monomeric complex injected"}, "[2]": {"target": "T1, monomeric HLA-A2:NY-ESO-1(156-165) (V …)", "assay": "SPR, 25 C, antibody captured, monomeric complex injected;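 further: antibody held on sensor chip via immobilized anti-human or anti-mouse Fc antibody, rate constants derived by fitting sensorgrams to a 1:1 binding model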"}, "[3]": {"target": "HLA-A2 on T2 cells pulsed with BCL9L: 1351-1359 peptide (human)", "assay": "flow cytometry, 10 ug/ml, pulsed T2 cells"}, "[4]": {"target": "HLA-A2 on T2 cells pulsed with FBXL22: 4-12 peptide (human)", "assay": "flow cytometry, 10 ug/ml, pulsed T2 cells"}, "[5]": {"target": "HLA-A2 on T2 cells pulsed with URB1: 1853-1861 peptide (human)", "assay": "flow cytometry, 10 ug/ml, pulsed T2 cells"}, "[6]": {"target": "HLA-A2 on T2 cells pulsed with MAGEH1: 90-98 peptide (human)", "assay": "flow cytometry, 10 ug/ml, pulsed T2 cells"}, "[7]": {"target": "HLA-A2 on T2 cells pulsed with GRID1: 7-15 peptide (human)", "assay": "flow cytometry, 10 ug/ml, pulsed T2 cells"}, "[8]": {"target": "HLA-A2 on T2 cells pulsed with EARS2: 306-314 peptide (human)", "assay": "flow cytometry, 10 ug/ml, pulsed T2 cells"}, "[9]": {"target": "T2, HLA-A2 on T2 cells pulsed with NY-ESO-1:157-165, wt peptide (C165) (human)", "T2 construct": "also called T2 Pulsed NY-ESO-1_157-165", "assay": "flow cytometry, 10 ug/ml, pulsed T2 cells"}, "[10]": {"target": "HLA-A2 on T2 cells pulsed with ZDHHC1 (376-384) peptide (human)", "assay": "flow cytometry, 10 ug/ml, pulsed T2 cells"}, "[11]": {"target": "HLA-A2 on T2 cells pulsed with ITCH (807-815) peptide (human)", "assay": "flow cytometry, 10 ug/ml, pulsed T2 cells"}, "[12]": {"target": "T2, HLA-A2 on T2 cells pulsed with …", "assay": "flow cytometry, peptide-pulsed T2 cells"}},
  "data": [
    {"binder": "mAb28128P (antibody, human IgG4 S228P, kappa, V domains shown) VH: EVQLVESGGGVVQPGGSLRLSCAASGFIFDDYAMHWVRQVPGKGLEWISLSSGGGGGTYYADPVKGRFTISRDNSKNSLHLQMNSLRAEDTASYYCAKDMVFGVVTPDFFFAMDVWGQGTTVTVSS VL: DIQMTQSPSSLSASVGDRVTITCRASQSISTYLNWYQQKPGKAPKLLIYGASSLQRGVPSRFSGSGSGTDFTLTISSLQPEDFATYYCQQTYSTPPITFGQGTRLEIKR", "values": [
      {"measurement": "Kd", "setting": "[1]", "result": 0.293, "unit": "nM"},
      {"measurement": "koff", "setting": "[1]", "result": 0.000441, "unit": "s⁻¹"},
      {"measurement": "kon", "setting": "[1]", "result": "1.5e+06", "unit": "M⁻¹ s⁻¹"},
      {"measurement": "t½", "setting": "[1]", "result": 26.2, "unit": "min"},
      {"measurement": "Kd", "setting": "[2]", "result": 0.16, "unit": "nM"},
      {"measurement": "koff", "setting": "[2]", "result": 0.000185, "unit": "s⁻¹"},
      {"measurement": "kon", "setting": "[2]", "result": "1.16e+06", "unit": "M⁻¹ s⁻¹"},
      {"measurement": "t½", "setting": "[2]", "result": 62.5, "unit": "min"},
      {"measurement": "ratio of MFI, pulsed to unpulsed", "setting": "[3]", "result": 3, "unit": "ratio"},
      {"measurement": "ratio of MFI, pulsed to unpulsed", "setting": "[4]", "result": 1.3, "unit": "ratio"},
      {"measurement": "ratio of MFI, pulsed to unpulsed", "setting": "[5]", "result": 0.6, "unit": "ratio"},
      {"measurement": "ratio of MFI, pulsed to unpulsed", "setting": "[6]", "result": 0.5, "unit": "ratio"},
      {"measurement": "ratio of MFI, pulsed to unpulsed", "setting": "[7]", "result": 1.6, "unit": "ratio"},
      {"measurement": "ratio of MFI, pulsed to unpulsed", "setting": "[8]", "result": 0.6, "unit": "ratio"},
      {"measurement": "ratio of MFI, pulsed to unpulsed", "setting": "[9]", "result": 138, "unit": "ratio"},
      {"measurement": "ratio of MFI, pulsed to unpulsed", "setting": "[10]", "result": 1.6, "unit": "ratio"},
      {"measurement": "ratio of MFI, pulsed to unpulsed", "setting": "[11]", "result": 1, "unit": "ratio"},
      {"measurement": "EC50", "setting": "[12]", "result": 0.32, "unit": "nM"}
    ]}
  ]
}
